From PMC4785722 (Journal of molecular biology, 2009)

Biological target: the molecule itself
Experiment: native MS

B1: bacteriophage MS2 coat protein dimer (natural protein)
chain: ASNFTQFVLVDNGGTGDVTVAPSNFANGVAEWISSNSRSQAYKVTCSVRQSSAQNRKYTIKVEVPKVATQTVGGVELPVAAWRSYLNMELTIPIFATNSDCELIVKAMQGLLKDGNPIPSAIAANSGIY
stoichiometry N: 10 CP2 dimers
